From patent publication US20190284279A1
pEC50: −log10 of the molar value.

Columns and labels:
[1] = molecular target: human CD19 antigen on the surface of B lymphoma cells (Raji, Daudi, IM-9, Namalwa) (human) (UniProt P15391); test: cell-based or functional assay
[2] = molecular target: human CD3 (CD3ε molecule) on the surface of Jurkat T cells (human) (UniProt P07766); test: flow cytometry on Jurkat cells
[3] = molecular target: human CD19 antigen on the surface of B lymphoma cells (Raji, Daudi, IM-9, Namalwa) (human) (UniProt P15391); test: flow cytometry on Raji cells; control antibody at 0.185 µg/ml
[4] = molecular target: human CD3 (CD3ε molecule) on the surface of Jurkat T cells (human) (UniProt P07766); test: cell-based or functional assay
[5] = molecular target: human CD19 antigen on the surface of B lymphoma cells (Raji, Daudi, IM-9, Namalwa) (human) (UniProt P15391); test: flow cytometry on Raji cells; control antibody at 0.556 µg/ml
[6] = molecular target: human CD19 antigen on the surface of B lymphoma cells (Raji, Daudi, IM-9, Namalwa) (human) (UniProt P15391); test: flow cytometry on Raji cells; control antibody at 15 µg/ml
[7] = molecular target: human CD19 antigen on the surface of B lymphoma cells (Raji, Daudi, IM-9, Namalwa) (human) (UniProt P15391); test: flow cytometry on Raji cells; control antibody at 1.667 µg/ml
[8] = molecular target: human CD19 antigen on the surface of B lymphoma cells (Raji, Daudi, IM-9, Namalwa) (human) (UniProt P15391); test: flow cytometry on Raji cells; control antibody at 5 µg/ml

Row | pEC50 [2] | average fluorescence value [3] | ED50 of CD69 expression (Mean FL2-A) on Jurkat E6-1 cells co-cultured with Raji cells (10:1) [4] | average fluorescence value [5] | average fluorescence value [6] | average fluorescence value [7] | average fluorescence value [8] | Substance | ED50 of killing of Daudi cells by human PBMC (Fluo 3-AM release) [1] | ED50 of killing of Namalwa cells by human PBMC (Fluo 3-AM release) [1] | ED50 of killing of Raji cells by human PBMC (Fluo 3-AM release) [1]
1 |  |  |  |  |  |  |  | BLI-193 (tandem single chain antibody structure, blinatumomab) (bispecific antibody) | 2.57 ng/mL | 0.107 ng/mL | 0.0868 ng/mL
2 | 8.22 | 3860 | 1280 ng/mL | 3390 | 3710 | 3570 | 3460 | OKT3 monoclonal antibody (mouse anti-human CD3 monoclonal antibody) |  |  | 
